Experimental data taken from US20250388673A1 (HIFIBIO, published 2025).

T1: human BTLA (human, UniProt Q7Z6A9 31-289)
T1 construct: also called hBTLA; HEK293.hBTLA
T1 sequence: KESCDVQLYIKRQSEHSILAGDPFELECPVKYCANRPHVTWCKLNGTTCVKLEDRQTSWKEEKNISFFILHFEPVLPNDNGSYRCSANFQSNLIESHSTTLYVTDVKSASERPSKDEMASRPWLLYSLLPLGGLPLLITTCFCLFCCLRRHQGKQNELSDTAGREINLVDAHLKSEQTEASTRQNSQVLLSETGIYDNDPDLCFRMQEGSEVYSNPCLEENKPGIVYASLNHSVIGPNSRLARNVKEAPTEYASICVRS


Biological target: T1, human BTLA
Assay: flow cytometry, HEK293 cells overexpressing human BTLA
Protocol: HEK293 cells overexpressing human BTLA and Expi293 cells overexpressing cynomolus BTLA were incubated with different concentrations of humanized anti-BTLA antibodies. Anti-BTLA antibody binding to target cells were quantified with an AF647-conjugated anti-human IgG Fc secondary antibody by flow cytometry.

| Binder | binding result |
| --- | --- |
| HFB6-5hz1-hG1 (antibody, human IgG1, V domains shown, Humanized variant of HFB6-5, human IgG1 (hG1)) VH: QVQLVQSGAEVKKPGSSVKVSCKASGVNIKDTYMYWVRQAPGQGLEWIGRIDPANGYARYAQKFQGRATITADESTSTAYMELSSLRSEDTAVYYCAVYDGYYESFDVWGQGTLVTVSS VL: DIQMTQSPSSLSASVGDRVTITCRSSQSLLDSDGKSYLNWLQQKPGKAPKRLIYLVSKLDSGVPSRFSGSGSGTDFTLTISSLQPEDFATYYCWQGTLFPRTFGQGTKLEIK | binds |
| HFB6-5hz3-hG1 (antibody, human IgG1, V domains shown, Humanized variant of HFB6-5, human IgG1 (hG1)) VH: EVQLVESGGGLVQPGRSLRLSCTASGVNIKDTYMYWVRQAPGKGLEWVGRIDPANGYTRYTASFKGRATISADGSKSIAYLQMNSLKTEDTAVYYCAVYDGYYESFDVWGQGTLVTVSS VL: DIQMTQSPSSLSASVGDRVTITCRSSQSLLDSDGKSYLNWLQQKPGKAPKRLIYLVSKLDSGVPSRFSGSGSGTDFTLTISSLQPEDFATYYCWQGTLFPRTFGQGTKLEIK | binds |
| HFB6-5hz13-hG1 (antibody, human IgG1, V domains shown, Humanized variant of HFB6-5, human IgG1 (hG1)) VH: QVQLVQSGAEVKKPGSSVKVSCKASGVNIKDTYMYWVRQAPGQGLEWIGRIDPANGYARYAQKFQGRATITADESTSTAYMELSSLRSEDTAVYYCAVYDGYYESFDVWGQGTLVTVSS VL: EIVLTQSPGTLSVSPGERATISCRSSQSLLDSDGKTYLNWLQQKPGQAPRRLIYLVSKRDTGVPDRFSGSGSGTDFTLTISRVEPEDFAVYYCWQGTLFPRTFGQGTKLEIK | binds |
| HFB6-5hz5-hG1 (antibody, human IgG1, V domains shown, Humanized variant of HFB6-5, human IgG1 (hG1)) VH: QVQLQESGPGLVKPSGTLSLTCAASGVNIKDTYMYWVRQPPGKGLEWIGRIDPANGYTRYNPSFKSRATISADKSKNQASLKLSSVTAADTAVYYCAVYDGYYESFDVWGQGTLVTVSS VL: DIQMTQSPSSLSASVGDRVTITCRSSQSLLDSDGKSYLNWLQQKPGKAPKRLIYLVSKLDSGVPSRFSGSGSGTDFTLTISSLQPEDFATYYCWQGTLFPRTFGQGTKLEIK | binds |
| HFB6-5hz7-hG1 (antibody, human IgG1, V domains shown, Humanized variant of HFB6-5, human IgG1 (hG1)) VH: QVQLVQSGAEVKKPGSSVKVSCKASGVNIKDTYMYWVRQAPGQGLEWIGRIDPANGYARYAQKFQGRATITADESTSTAYMELSSLRSEDTAVYYCAVYDGYYESFDVWGQGTLVTVSS VL: DVVMTQSPLSLPVTLGQPASISCRSSQSLLDSDGKTYLNWLQQRPGQSPRRLIYLVSKRDSGVPDRFSGSGSGTDFTLKISRVEAEDLGVYYCWQGTLFPRTFGQGTKLEIK | binds |
| HFB6-5hz14-hG1 (antibody, human IgG1, V domains shown, Humanized variant of HFB6-5, human IgG1 (hG1)) VH: QVQLVQSGAEVKKPGASVKVSCKASGVNIKDTYMYWVRQAPGQGLEWIGRIDPANGYTRYAQKFQGRATITADTSTSTVYMELSSLRSEDTAVYYCAVYDGYYESFDVWGQGTLVTVSS VL: EIVLTQSPGTLSVSPGERATISCRSSQSLLDSDGKTYLNWLQQKPGQAPRRLIYLVSKRDTGVPDRFSGSGSGTDFTLTISRVEPEDFAVYYCWQGTLFPRTFGQGTKLEIK | binds |
| HFB6-4-hG1 (human-mouse chimeric monoclonal antibody) (antibody, human IgG1, kappa, V domains shown, also called HFB6-4 parental antibody) VH: EVQLQQSGAELVNPGASVKLSCTTSGFNIKDTYIHWVKQRPEQGLEWIGRNDPANGNTKYDPKFQGKATITADTSSSTAYLQLSSLTSEDTAVYYCASYEGYYERFGYWGQGTLVTVSA VL: not shown | binds |
| HFB6-5hz9-hG1 (antibody, human IgG1, V domains shown, Humanized variant of HFB6-5, human IgG1 (hG1)) VH: EVQLVESGGGLVQPGRSLRLSCTASGVNIKDTYMYWVRQAPGKGLEWVGRIDPANGYTRYTASFKGRATISADGSKSIAYLQMNSLKTEDTAVYYCAVYDGYYESFDVWGQGTLVTVSS VL: DVVMTQSPLSLPVTLGQPASISCRSSQSLLDSDGKTYLNWLQQRPGQSPRRLIYLVSKRDSGVPDRFSGSGSGTDFTLKISRVEAEDLGVYYCWQGTLFPRTFGQGTKLEIK | binds |
| HFB6-5hz12-hG1 (antibody, human IgG1, V domains shown, Humanized variant of HFB6-5, human IgG1 (hG1)) VH: EVQLVQSGAEVKKPGESLKISCKGSGVNIKDTYMYWVRQMPGKGLEWIGRIDPANGYTRYSPSFQGQVTISADKSISTAYLQLSSLKASDTAMYYCAVYDGYYESFDVWGQGTLVTVSS VL: DVVMTQSPLSLPVTLGQPASISCRSSQSLLDSDGKTYLNWLQQRPGQSPRRLIYLVSKRDSGVPDRFSGSGSGTDFTLKISRVEAEDLGVYYCWQGTLFPRTFGQGTKLEIK | binds |
| HFB6-4hz21-hG1 (antibody, human IgG1, V domains shown, Humanized variant of HFB6-4, human IgG1 (hG1)) VH: EVQLVESGGGLVQPGRSLRLSCTTSGFNIKDTYIHWFRQAPGKGLEWVGRNDPANGNTKYTASFKGRATISADGSKSIAYLQMNSLKTEDTAVYYCASYEGYYERFGYWGQGTLVTVSS VL: DIVMTQSPDSLAVSLGERATINCKSSQSLLDRDGKTYLNWLQQKPGQSPKRLIYLVSKLDSGVPDRFSGSGSGTDFTLTISSLQAEDLAVYYCWQDTHFPYTFGQGTKLEIK | binds |
| HFB6-4hz23-hG1 (antibody, human IgG1, V domains shown, Humanized variant of HFB6-4, human IgG1 (hG1)) VH: QVQLQESGPGLVKPSGTLSLTCAVSGFNIKDTYIHWVRQPPGKGLEWIGRNDPANGNTKYNPSFKSRATISADKSKNQASLKLSSVTAADTAVYYCASYEGYYERFGYWGQGTLVTVSS VL: DIVMTQSPDSLAVSLGERATINCKSSQSLLDRDGKTYLNWLQQKPGQSPKRLIYLVSKLDSGVPDRFSGSGSGTDFTLTISSLQAEDLAVYYCWQDTHFPYTFGQGTKLEIK | binds |
| HFB6-4hz22-hG1 (antibody, human IgG1, V domains shown, Humanized variant of HFB6-4, human IgG1 (hG1)) VH: EVQLVESGGGLVQPGGSLKLSCATSGFNIKDTYIHWVRQASGKGLEWIGRNDPANGNTKYAASFKGRATISADDSKNTAYLQLNSLKTEDTAVYYCASYEGYYERFGYWGQGTLVTVSS VL: DIVMTQSPDSLAVSLGERATINCKSSQSLLDRDGKTYLNWLQQKPGQSPKRLIYLVSKLDSGVPDRFSGSGSGTDFTLTISSLQAEDLAVYYCWQDTHFPYTFGQGTKLEIK | binds |

Further lines, results first:

| binding result | Binder |
| --- | --- |
| binds | HFB6-5hz6-hG1 (antibody, human IgG1, V domains shown, Humanized variant of HFB6-5, human IgG1 (hG1)) VH: EVQLVQSGAEVKKPGESLKISCKGSGVNIKDTYMYWVRQMPGKGLEWIGRIDPANGYTRYSPSFQGQVTISADKSISTAYLQLSSLKASDTAMYYCAVYDGYYESFDVWGQGTLVTVSS VL: DIQMTQSPSSLSASVGDRVTITCRSSQSLLDSDGKSYLNWLQQKPGKAPKRLIYLVSKLDSGVPSRFSGSGSGTDFTLTISSLQPEDFATYYCWQGTLFPRTFGQGTKLEIK |
| binds | HFB6-5hz2-hG1 (antibody, human IgG1, V domains shown, Humanized variant of HFB6-5, human IgG1 (hG1)) VH: QVQLVQSGAEVKKPGASVKVSCKASGVNIKDTYMYWVRQAPGQGLEWIGRIDPANGYTRYAQKFQGRATITADTSTSTVYMELSSLRSEDTAVYYCAVYDGYYESFDVWGQGTLVTVSS VL: DIQMTQSPSSLSASVGDRVTITCRSSQSLLDSDGKSYLNWLQQKPGKAPKRLIYLVSKLDSGVPSRFSGSGSGTDFTLTISSLQPEDFATYYCWQGTLFPRTFGQGTKLEIK |
| binds | HFB6-5hz4-hG1 (antibody, human IgG1, V domains shown, Humanized variant of HFB6-5, human IgG1 (hG1)) VH: EVQLVESGGGLVQPGGSLKLSCAASGVNIKDTYMYWVRQASGKGLEWIGRIDPANGYTRYAASFKGRATISADDSKNTAYLQLNSLKTEDTAVYYCAVYDGYYESFDVWGQGTLVTVSS VL: DIQMTQSPSSLSASVGDRVTITCRSSQSLLDSDGKSYLNWLQQKPGKAPKRLIYLVSKLDSGVPSRFSGSGSGTDFTLTISSLQPEDFATYYCWQGTLFPRTFGQGTKLEIK |
| binds | HFB6-5hz8-hG1 (antibody, human IgG1, V domains shown, Humanized variant of HFB6-5, human IgG1 (hG1)) VH: QVQLVQSGAEVKKPGASVKVSCKASGVNIKDTYMYWVRQAPGQGLEWIGRIDPANGYTRYAQKFQGRATITADTSTSTVYMELSSLRSEDTAVYYCAVYDGYYESFDVWGQGTLVTVSS VL: DVVMTQSPLSLPVTLGQPASISCRSSQSLLDSDGKTYLNWLQQRPGQSPRRLIYLVSKRDSGVPDRFSGSGSGTDFTLKISRVEAEDLGVYYCWQGTLFPRTFGQGTKLEIK |
| binds | HFB6-5hz11-hG1 (antibody, human IgG1, V domains shown, Humanized variant of HFB6-5, human IgG1 (hG1)) VH: QVQLQESGPGLVKPSGTLSLTCAASGVNIKDTYMYWVRQPPGKGLEWIGRIDPANGYTRYNPSFKSRATISADKSKNQASLKLSSVTAADTAVYYCAVYDGYYESFDVWGQGTLVTVSS VL: DVVMTQSPLSLPVTLGQPASISCRSSQSLLDSDGKTYLNWLQQRPGQSPRRLIYLVSKRDSGVPDRFSGSGSGTDFTLKISRVEAEDLGVYYCWQGTLFPRTFGQGTKLEIK |
| binds | HFB6-5hz15-hG1 (antibody, human IgG1, V domains shown, Humanized variant of HFB6-5, human IgG1 (hG1)) VH: EVQLVESGGGLVQPGRSLRLSCTASGVNIKDTYMYWVRQAPGKGLEWVGRIDPANGYTRYTASFKGRATISADGSKSIAYLQMNSLKTEDTAVYYCAVYDGYYESFDVWGQGTLVTVSS VL: EIVLTQSPGTLSVSPGERATISCRSSQSLLDSDGKTYLNWLQQKPGQAPRRLIYLVSKRDTGVPDRFSGSGSGTDFTLTISRVEPEDFAVYYCWQGTLFPRTFGQGTKLEIK |
| binds | HFB6-5hz10-hG1 (antibody, human IgG1, V domains shown, Humanized variant of HFB6-5, human IgG1 (hG1)) VH: EVQLVESGGGLVQPGGSLKLSCAASGVNIKDTYMYWVRQASGKGLEWIGRIDPANGYTRYAASFKGRATISADDSKNTAYLQLNSLKTEDTAVYYCAVYDGYYESFDVWGQGTLVTVSS VL: DVVMTQSPLSLPVTLGQPASISCRSSQSLLDSDGKTYLNWLQQRPGQSPRRLIYLVSKRDSGVPDRFSGSGSGTDFTLKISRVEAEDLGVYYCWQGTLFPRTFGQGTKLEIK |
| binds | HFB6-4hz24-hG1 (antibody, human IgG1, V domains shown, Humanized variant of HFB6-4, human IgG1 (hG1)) VH: EVQLVQSGAEVKKPGESLKISCKTSGFNIKDTYIHWVRQMPGKGLEWIGRNDPANGNTKYSPSFQGQVTISADKSISTAYLQLSSLKASDTAMYYCASYEGYYERFGYWGQGTLVTVSS VL: DIVMTQSPDSLAVSLGERATINCKSSQSLLDRDGKTYLNWLQQKPGQSPKRLIYLVSKLDSGVPDRFSGSGSGTDFTLTISSLQAEDLAVYYCWQDTHFPYTFGQGTKLEIK |
